± gives the standard deviation of the averaged measurements.
Assay: total protein half-life in vivo (active degradation + dilution); higher = more stable protein
[1] = E. coli NCM3722 delta-clpP delta-lon delta-hslV, growth: N-lim chemostat, doubling time 6 h
[2] = E. coli NCM3722 delta-clpP, growth: N-lim chemostat, doubling time 6 h
[3] = E. coli NCM3722 delta-hslV, growth: N-lim chemostat, doubling time 6 h
[4] = E. coli NCM3722 delta-lon, growth: N-lim chemostat, doubling time 6 h
[5] = E. coli NCM3722 delta-smpB, growth: N-lim chemostat, doubling time 6 h
[6] = wild type E. coli NCM3722, growth: C-lim chemostat, doubling time 3 h
[7] = wild type E. coli NCM3722, growth: C-lim chemostat, doubling time 12 h
[8] = wild type E. coli NCM3722, growth: N-lim chemostat, doubling time 6 h
[9] = wild type E. coli NCM3722, growth: N-lim chemostat, doubling time 12 h
[10] = wild type E. coli NCM3722, growth: P-lim chemostat, doubling time 6 h
[11] = wild type E. coli NCM3722, growth: P-lim chemostat, doubling time 12 h
[12] = wild type E. coli NCM3722, growth: C-lim chemostat, doubling time 6 h

Row | Sequence | total protein half-life in vivo [1] | total protein half-life in vivo [2] | total protein half-life in vivo [3] | total protein half-life in vivo [4] | total protein half-life in vivo [5] | total protein half-life in vivo [6] | total protein half-life in vivo [7] | total protein half-life in vivo [8] | total protein half-life in vivo [9] | total protein half-life in vivo [10] | total protein half-life in vivo [11] | total protein half-life in vivo [12]
1 | MVDQVKVVADDQAPAEQSLRRNLTNRHIQLIAIGGAIGTGLFMGSGKTISLAGPSIIFVYMIIGFMLFFVMRAMGELLLSNLEYKSFSDFASDLLGPWAGYFTGWTYWFCWVVTGMADVVAITAYAQFWFPDLSDWVASLAVIVLLLTLNLATVKMFGEMEFWFAMIKIVAIVSLIVVGLVMVAMHFQSPTGVEASFAHLWNDGGWFPKGLSGFFAGFQIAVFAFVGIELVGTTAAETKDPEKSLPRAINSIPIRIIMFYVFALIVIMSVTPWSSVVPEKSPFVELFVLVGLPAAASVINFVVLTSAASSANSGVFSTSRMLFGLAQEGVAPKAFAKLSKRAVPAKGLTFSCICLLGGVVMLYVNPSVIGAFTMITTVSAILFMFVWTIILCSYLVYRKQRPHLHEKSIYKMPLGKLMCWVCMAFFVFVVVLLTLEDDTRQALLVTPLWFIALGLGWLFIGKKRAAELRK [P0AAE0] | 4.28 ± 0.25 h | 3.4 ± 0.0052 h | 3.26 ± 0.38 h | 2.95 ± 0.22 h | 3.33 ± 0.25 h | 3.28 ± 0.5 h | 8.36 ± 0.32 h | 3.26 ± 0.58 h | 5 ± 0.22 h | 4.74 ± 0.37 h | 6.57 ± 0.66 h | –
2 | MVDSKKRPGKDLDRIDRNILNELQKDGRISNVELSKRVGLSPTPCLERVRRLERQGFIQGYTALLNPHYLDASLLVFVEITLNRGAPDVFEQFNTAVQKLEEIQECHLVSGDFDYLLKTRVPDMSAYRKLLGETLLRLPGVNDTRTYVVMEEVKQSNRLVIKTR [P0ACJ0] | 6.5 ± 0.13 h | 6.63 ± 0.76 h | 6.65 ± 0.079 h | 7.54 ± 0.57 h | 6.08 ± 0.29 h | 3.27 ± 0.28 h | 10.8 ± 0.19 h | 5.82 ± 0.65 h | 12 ± 0.67 h | 5.73 ± 0.45 h | 14 ± 0.69 h | 6.23 ± 0.33 h
3 | MVDTTQTTTEKKLTQSDIRGVFLRSNLFQGSWNFERMQALGFCFSMVPAIRRLYPENNEARKQAIRRHLEFFNTQPFVAAPILGVTLALEEQRANGAEIDDGAINGIKVGLMGPLAGVGDPIFWGTVRPVFAALGAGIAMSGSLLGPLLFFILFNLVRLATRYYGVAYGYSKGIDIVKDMGGGFLQKLTEGASILGLFVMGALVNKWTHVNIPLVVSRITDQTGKEHVTTVQTILDQLMPGLVPLLLTFACMWLLRKKVNPLWIIVGFFVIGIAGYACGLLGL | 6.27 ± 0.37 h | 6.2 ± 0.14 h | 5.93 ± 0.077 h | 6.13 ± 0.11 h | 6.28 ± 0.28 h | 3.168 ± 0.014 h | 13.8 ± 2.9 h | 6.51 ± 0.75 h | 12.8 ± 1.1 h | 6.24 ± 0.064 h | 13.56 ± 0.072 h | 6.21 ± 0.26 h
4 | MVERTAVFPAGRHSLYAEHRYSAAIRSGDLLFVSGQVGSREDGTPEPDFQQQVRLAFDNLHATLAAAGCTFDDIIDVTSFHTDPENQFEDIMTVKNEIFSAPPYPNWTAVGVTWLAGFDFEIKVIARIPEQ | 5.72 ± 0.59 h | 4.29 ± 0.47 h | 5.62 ± 1.5 h | 5.45 ± 0.62 h | 4.61 ± 0.57 h | 3.61 h | 11.5 ± 1.1 h | 5.02 ± 0.087 h | 8.83 ± 0.12 h | 5.604 ± 0.05 h | 12.1 ± 0.51 h | 6.32 h
5 | MVIGPFINASAVLLGGVLGALLSQRLPERIRVSMTSIFGLASLGIGILLVVKCANLPAMVLATLLGALIGEICLLEKGVNTAVAKAQNLFRHSRKKPAHESFIQNYVAIIVLFCASGTGIFGAMNEGMTGDPSILIAKSFLDFFTAMIFACSLGIAVSVISIPLLIIQLTLAWAAALILPLTTPSMMADFSAVGGLLLLATGLRICGIKMFPVVNMLPALLLAMPLSAAWTAWFA | – | 6.45 h | – | – | – | – | – | – | 10.8 h | – | – | –
6 | MVIKAQSPAGFAEEYIIESIWNNRFPPGTILPAERELSELIGVTRTTLREVLQRLARDGWLTIQHGKPTKVNNFWETSGLNILETLARLDHESVPQLIDNLLSVRTNISTIFIRTAFRQHPDKAQEVLATANEVADHADAFAELDYNIFRGLAFASGNPIYGLILNGMKGLYTRIGRHYFANPEARSLALGFYHKLSALCSEGAHDQVYETVRRYGHESGEIWHRMQKNLPGDLAIQGR [P0A8V6] | 5.22 ± 0.34 h | 5.72 ± 0.28 h | 5.12 ± 0.56 h | 6.05 ± 0.6 h | 5.01 ± 0.18 h | 2.88 ± 0.091 h | 9.92 ± 0.94 h | 5.93 ± 0.23 h | 10.3 ± 0.15 h | 4.58 ± 0.83 h | 8.62 ± 1.3 h | 6.27 ± 0.67 h
7 | MVKKSEFERGDIVLVGFDPASGHEQQGAGRPALVLSVQAFNQLGMTLVAPITQGGNFARYAGFSVPLHCEEGDVHGVVLVNQVRMMDLHARLAKRIGLAADEVVEEALLRLQAVVE | – | – | – | – | – | – | – | – | 6.76 h | – | 10.7 h | 6.08 h
8 | MVKSTPCITIDFMNMSQLTERTFTPSESLSSLSLFLSLARGQCRPGKFWHRRSFRQKFLLRSLIMPRLSVEWMNELSHWPNLNVLLTRQPRLPVRLHRPYLAANLSRKQLLEALRYHYALLRECMSAEEFSLYLNTPGLQLAKLEGKNGEQFTLELTMMISMDKEGDSTILFRNSEGIPLAEITFTLCEYQGKRTMFIGGLQGAKWEIPHQEIQNATKACHGLFPKRLVMEAACLFAQRLQVEQIIAVSNETHIYRSLRYRDKEGKIHADYNAFWESVGGVCDAERHYRLPAQIARKEIAEIASKKRAEYRRRYEMLDAIQPQMATMFRG | 3.06 ± 0.041 h | – | 0.723 h | 1.38 ± 0.35 h | 0.646 ± 0.039 h | 0.953 ± 0.067 h | 1.31 h | 1.16 ± 0.38 h | 1.2 ± 0.25 h | – | 2.33 h | 0.7307 ± 0.0013 h
9 | MVLGKPQTDPTLEWFLSHCHIHKYPSKSTLIHQGEKAETLYYIVKGSVAVLIKDEEGKEMILSYLNQGDFIGELGLFEEGQERSAWVRAKTACEVAEISYKKFRQLIQVNPDILMRLSAQMARRLQVTSEKVGNLAFLDVTGRIAQTLLNLAKQPDAMTHPDGMQIKITRQEIGQIVGCSRETVGRILKMLEDQNLISAHGKTIVVYGTR [P0ACJ8] | 5.31 ± 0.51 h | 5.17 ± 0.55 h | 4.68 ± 0.23 h | 4.86 ± 0.09 h | 4.55 ± 0.33 h | 2.92 ± 0.22 h | 10 ± 0.63 h | 4.582 ± 0.038 h | 7.59 ± 0.18 h | 5.09 ± 0.27 h | 9.72 ± 0.62 h | 5.84 ± 0.064 h
